According to US20260347476 (published 2026):

What was measured:
IL-15 [1] = target: T1, IL-15 (human, UniProt P40933); assay: SPR, PD1 capture
IL-15 [2] = target: T1, IL-15; assay: SPR, anti-human Fc capture
IL-15 [3] = target: T1, IL-15; assay: SPR, PD1 capture, additional production
IL-15 [4] = target: T1, IL-15; assay: SPR, anti-human Fc capture, additional production
[5] = target: T2, IL-15Rbetagamma heterodimer (human, UniProt P14784); assay: SPR, PD1 capture
T2 chain 1: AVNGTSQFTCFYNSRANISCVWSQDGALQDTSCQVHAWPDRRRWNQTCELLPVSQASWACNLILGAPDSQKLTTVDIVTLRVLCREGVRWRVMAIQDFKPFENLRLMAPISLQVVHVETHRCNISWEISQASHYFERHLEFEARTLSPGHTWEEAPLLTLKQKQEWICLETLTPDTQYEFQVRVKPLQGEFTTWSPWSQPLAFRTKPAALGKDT
T2 chain 2: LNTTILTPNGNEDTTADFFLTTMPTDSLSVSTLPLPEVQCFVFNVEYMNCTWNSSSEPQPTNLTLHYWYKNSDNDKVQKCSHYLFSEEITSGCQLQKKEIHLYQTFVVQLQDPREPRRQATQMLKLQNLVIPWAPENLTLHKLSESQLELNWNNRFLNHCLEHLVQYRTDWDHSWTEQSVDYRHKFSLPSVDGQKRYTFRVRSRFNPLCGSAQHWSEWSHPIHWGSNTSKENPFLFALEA

[6] = target: T2, IL-15Rbetagamma heterodimer; assay: SPR, anti-human Fc capture
[7] = target: T2, IL-15Rbetagamma heterodimer; assay: SPR, PD1 capture, additional production
[8] = target: T2, IL-15Rbetagamma heterodimer; assay: SPR, anti-human Fc capture, IL-15 and PD1 bound
PD-1 [9] = target: T3, PD-1 (human, UniProt Q15116); assay: SPR, PD1 surface
PD-1 [10] = target: T3, PD-1; assay: SPR, protein A capture
PD-1 [11] = target: T3, PD-1; assay: SPR, anti-human Fc capture, additional production
PD-1 [12] = target: T3, PD-1; assay: SPR, protein A capture; remark: listed apart in the source

T3 sequence (Q15116 25-167): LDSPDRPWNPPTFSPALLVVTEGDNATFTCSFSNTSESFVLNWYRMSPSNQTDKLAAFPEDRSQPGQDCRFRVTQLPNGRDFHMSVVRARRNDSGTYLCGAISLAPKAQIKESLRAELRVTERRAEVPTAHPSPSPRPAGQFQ
T1 sequence (P40933 49-162): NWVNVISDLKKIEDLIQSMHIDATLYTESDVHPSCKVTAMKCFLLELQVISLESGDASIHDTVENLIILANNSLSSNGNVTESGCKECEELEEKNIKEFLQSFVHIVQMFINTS

Binder | Kd (IL-15 [1]) | Kd (IL-15 [2]) | Kd [5] | Kd [6] | also measured
RV30 IL-15 arm (antibody, V domains shown) VH: QVQLVQSGAEVKKPGASVKVSCKASGYSFSSFGISWVRQAPGQGLEWLGWISAFNGYTKYAQKFQDRVTMTTDTSTSTAYMELRSLRSDDTAVYYCARDPAAWPLQQSLAWFDPWGQGTMVTVSS VL: QSVLTQPPSASGTPGQRVTISCSGSTSNLKRNYVYWYQQLPGTAPKLLIYRDRRRPSGVPDRFSGSKSGTSASLAISGLRSEDEADYYCAWYDRELSEWVFGGGTKLTVL | 0.452 nM | 0.077 nM |  |  | Kd (IL-15 [3]): 0.85 nM; Kd (IL-15 [4]): 0.0664 nM
RV20:IL-15 complex (antibody) chain 1: QVQLVQSGAEVKKPGASVKVSCKASGYSFSSFGISWVRQAPGQGLEWLGWISAFNGYTKYAQKFQDRVTMTTDTSTSTAYMELRSLRSDDTAVYYCARDPAAWPLQQSLAWFDPWGQGTMVTVSS chain 2: QSVLTQPPSASGTPGQRVTISCSGSTSNLKRNYVYWYQQLPGTAPKLLIYRDRRRPSGVPDRFSGSKSGTSASLAISGLRSEDEADYYCAWYDRELSEWVFGGGTKLTVL chain 3: not shown |  |  | 0.667 nM | 0.852 nM | Kd [7]: 0.726 nM
RV20 IL-15 arm (antibody, V domains shown) VH: QVQLVQSGAEVKKPGASVKVSCKASGYSFSSFGISWVRQAPGQGLEWLGWISAFNGYTKYAQKFQDRVTMTTDTSTSTAYMELRSLRSDDTAVYYCARDPAAWPLQQSLAWFDPWGQGTMVTVSS VL: QSVLTQPPSASGTPGQRVTISCSGSTSNLKRNYVYWYQQLPGTAPKLLIYRDRRRPSGVPDRFSGSKSGTSASLAISGLRSEDEADYYCAWYDRELSEWVFGGGTKLTVL |  | 0.0519 nM |  |  | Kd (IL-15 [3]): 0.169 nM; Kd (IL-15 [4]): 0.0531 nM
RV37:IL-15 complex (antibody) chain 1: QVQLVQSGAEVKKPGASVKVSCKASGYSFSSFGISWVRQAPGQGLEWLGWISAFNGYTKYAQKFQDRVTMTTDTSTSTAYMELRSLRSDDTAVYYCARDPAAWPLQQSLAWFDPWGQGTMVTVSS chain 2: QSVLTQPPSASGTPGQRVTISCSGSTSNLKRNYVYWYQQLPGTAPKLLIYRDRRRPSGVPDRFSGSKSGTSASLAISGLRSEDEADYYCAWYDRELSEWVFGGGTKLTVL chain 3: not shown |  |  | 0.693 nM | 0.986 nM | Kd [8]: 0.848 nM
RV30:IL-15 complex (antibody) chain 1: QVQLVQSGAEVKKPGASVKVSCKASGYSFSSFGISWVRQAPGQGLEWLGWISAFNGYTKYAQKFQDRVTMTTDTSTSTAYMELRSLRSDDTAVYYCARDPAAWPLQQSLAWFDPWGQGTMVTVSS chain 2: QSVLTQPPSASGTPGQRVTISCSGSTSNLKRNYVYWYQQLPGTAPKLLIYRDRRRPSGVPDRFSGSKSGTSASLAISGLRSEDEADYYCAWYDRELSEWVFGGGTKLTVL chain 3: not shown |  |  | 0.828 nM | 0.849 nM | Kd [7]: 0.665 nM; Kd [8]: 0.706 nM
RV20 PD-1 arm (antibody, V domains shown) VH: QVQLVQSGVEVKKPGASVKVSCKASGYTFTNYYMYWVRQAPGQCLEWMGGINPSNGGTNFNEKFKNRVTLTTDSSTTTAYMELKSLQFDDTAVYYCARRDYRFDMGFDYWGQGTTVTVSS VL: EIVLTQSPATLSLSPGERATLSCRASKGVSTSGYSYLHWYQQKPGQAPRLLIYLASYLESGVPARFSGSGSGTDFTLTISSLEPEDFAVYYCQHSRDLPLTFGCGTKVEIK |  |  |  |  | Kd (PD-1 [9]): 17.2 nM; Kd (PD-1 [10]): 269 nM; Kd (PD-1 [11]): 3.99 nM
RV19 PD-1 arm (antibody, V domains shown) VH: QVQLVQSGVEVKKPGASVKVSCKASGYTFTNYYMYWVRQAPGQCLEWMGGINPSNGGTNFNEKFKNRVTLTTDSSTTTAYMELKSLQFDDTAVYYCARRDYRFDMGFDYWGQGTTVTVSS VL: EIVLTQSPATLSLSPGERATLSCRASKGVSTSGYSYLHWYQQKPGQAPRLLIYLASYLESGVPARFSGSGSGTDFTLTISSLEPEDFAVYYCQHSRDLPLTFGCGTKVEI |  |  |  |  | binding result (PD-1 [12]): no binding
RV36 IL-15 arm (antibody, V domains shown) VH: QVQLVQSGAEVKKPGASVKVSCKASGYSFSSFGISWVRQAPGQGLEWLGWISAFNGYTKYAQKFQDRVTMTTDTSTSTAYMELRSLRSDDTAVYYCARDPAAWPLQQSLAWFDPWGQGTMVTVSS VL: QSVLTQPPSASGTPGQRVTISCSGSTSNLKRNYVYWYQQLPGTAPKLLIYRDRRRPSGVPDRFSGSKSGTSASLAISGLRSEDEADYYCAWYDRELSEWVFGGGTKLTVL | 0.111 nM | 0.116 nM |  |  | 
RV31 IL-15 arm (antibody, V domains shown) VH: QVQLVQSGAEVKKPGASVKVSCKASGYSFSSFGISWVRQAPGQGLEWLGWISAFNGYTKYAQKFQDRVTMTTDTSTSTAYMELRSLRSDDTAVYYCARDPAAWPLQQSLAWFDPWGQGTMVTVSS VL: QSVLTQPPSASGTPGQRVTISCSGSTSNLKRNYVYWYQQLPGTAPKLLIYRDRRRPSGVPDRFSGSKSGTSASLAISGLRSEDEADYYCAWYDRELSEWVFGGGTKLTVL | 0.717 nM | 0.18 nM |  |  | 
RV26 PD-1 arm (antibody, V domains shown) VH: QVQLVQSGVEVKKPGASVKVSCKASGYTFTNYYMYWVRQAPGQCLEWMGGINPSNGGTNFNEKFKNRVTLTTDSSTTTAYMELKSLQFDDTAVYYCARRDYRFDMGFDYWGQGTTVTVSS VL: EIVLTQSPATLSLSPGERATLSCRASKGVSTSGYSYLHWYQQKPGQAPRLLIYLASYLESGVPARFSGSGSGTDFTLTISSLEPEDFAVYYCQHSRDLPLTFGCGTKVEIK |  |  |  |  | Kd (PD-1 [9]): 2.19 nM
